The text below walks through data of publication PMC5148612.

For assay [1], the target named is Atg5 K57E,N84E-TAP (S. cerevisiae) (UniProt Q12380). Briefly: co-IP; lysates of atg16∆ atg19∆ S. cerevisiae with integrated Atg5-TAP or Atg5 K57E,N84E-TAP, plasmid 6xmyc-Atg19 and plasmid Atg16 wild type; IgG beads (Figure 5F).
Assay [2] has the same target. Briefly: co-IP; as a14 but with plasmid Atg16 E102A instead of Atg16 wild type (Figure 5F).

Atg5 K57E,N84E-TAP (S. cerevisiae), sequence (Q12380 whole entry K57E/N84E): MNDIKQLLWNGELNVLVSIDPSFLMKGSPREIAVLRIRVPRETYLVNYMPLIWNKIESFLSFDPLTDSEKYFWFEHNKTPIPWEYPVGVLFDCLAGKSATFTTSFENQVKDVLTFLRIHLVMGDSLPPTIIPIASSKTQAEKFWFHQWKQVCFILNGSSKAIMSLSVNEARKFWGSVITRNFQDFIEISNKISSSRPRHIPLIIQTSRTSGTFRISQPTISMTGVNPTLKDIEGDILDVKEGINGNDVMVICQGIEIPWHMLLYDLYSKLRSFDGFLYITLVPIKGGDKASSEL

Take “6xmyc-Atg19 (from UniProt P35193 1-415) (natural protein)”: the 6xmyc-Atg19 pulled down, percent of the sample with wild type Atg5 and Atg16 came out at 13% in assay [1] and 2.9% in assay [2].
